According to patent US20110039780A1 (Pfizer, published 2011):
Positions count from the first letter of the chain named. Names may count otherwise. Each block holds one binder with its values, some of them ahead of it.

Experiments:
α-thrombin [1] = target: T1, α-thrombin (UniProt P00734 328-363; P00734 364-622); assay: Biacore assay
Protocol: (§1) The binding abilities of GPIbα-290/2V-Ig and GPIbα-290-2V/FFF-Ig to vWF and a-thrombin were evaluated in vitro using a Biacore assay.

vWF A1 domain [2] = target: T2, vWF A1 domain (UniProt P04275 1261-1468, limits assumed); assay: Biacore assay
T2 construct: domain: A1; also called vWF A1 fragment
Protocol: as §1

vWF A1 domain [3] = target: T2, vWF A1 domain; assay: binding constant; method not stated in Example 3
[4] = target: T3, intact von Willebrand factor (UniProt P04275 764-2813, limits assumed); assay: binding constant; method not stated in Example 3
T3 construct: also called vWF; intact vWF

α-thrombin [5] = target: T1, α-thrombin; assay: SPR (BiaCore)
[6] = target: T3, intact von Willebrand factor; assay: SPR (BiaCore); fully sulfated isoform
[7] = target: T3, intact von Willebrand factor; assay: SPR (BiaCore); 6 sulfated (fully sulfated)
[8] = target: T3, intact von Willebrand factor; assay: SPR (BiaCore); non-sulfated isoform
[9] = target: T3, intact von Willebrand factor; assay: SPR (BiaCore); 0 sulfated (unsulfated)
vWF A1 domain [10] = target: T2, vWF A1 domain; assay: Biacore assay; remark: listed apart in the source

B1: GPIbα-IgG1Fc fusion protein with a wild-type human GPIbα sequence (Fc fusion)
chain: HPICEVSKVASHLEVNCDKRNLTALPPDLPKDTTILHLSENLLYTFSLATLMPYTRLTQLNLDRCELTKLQVDGTLPVLGTLDLSHNQLQSLPLLGQTLPALTVLDVSFNRLTSLPLGALRGLGELQELYLKGNELKTLPPGLLTPTPKLEKLSLANNNLTELPAGLLNGLENLDTLLLQENSLYTIPKGFFGSHLLPFAFLHGNPWLCNCEILYFRRWLQDNAENVYVWKQGVDVKAMTSNVASVQCDNSDKFPVYKYPGKGCPTLGDEGDTDLYDYYPEEDTEGDKVR
modifications: tyrosines 276, 278, 279 can be sulfated; sulfation state of the tested material not stated
notes: Made in CHO cells; dimerized forms were isolated; also called WT; GPIb-Ig WT; not shown: IgG1 Fc
Kd (α-thrombin [1]): 760 nM

B2: GPIb-290/2V-Ig (N-terminal 290 amino acids of GPIbα with G233V M239V fused to a human IgG1 Fc domain) (Fc fusion)
chain: B1 chain with G233V, M239V
modifications: sulfated tyrosines at 276, 278, 279 (extent not stated)
notes: also called GPIb2V-Ig; GP Ib-Ig2V; not shown: human IgG1 Fc domain
Kd (vWF A1 domain [2]): 5 nM | Kd (α-thrombin [1]): 630 nM | Ka (vWF A1 domain [3]): 1.9e+08 M⁻¹ | Ka [4]: 5.6e+08 M⁻¹

B6: GPIbα-IgG1Fc fusion protein 2V (G233V M239V), fully sulfated isoform (Fc fusion)
chain: B1 chain with G233V, M239V
modifications: sulfotyrosine at 276, 278 and 279 (fully sulfated: sulfation state 6 per dimer)
notes: also called 2V 6 sulfated; GP Ib-Ig2V fully sulfated isoform; not shown: IgG1 Fc
fold higher binding affinity than the unsulfated isoform (α-thrombin [5]): ~80 fold | Kd [6]: 4 nM | Kd [7]: 3.4 to 15 nM

B8: GPIbα-IgG1Fc fusion protein 1V (M239V), non-sulfated isoform (Fc fusion)
chain: B1 chain with M239V
modifications: tyrosines 276, 278, 279 not sulfated (sulfation state 0)
notes: also called 1V 0 sulfated; GP Ibα-Ig239V unsulfated isoform; not shown: IgG1 Fc
Kd [8]: 284 nM | Kd [9]: 113 to 521 nM

B9: GPIbα fusion protein variant 3V (G233V K237V M239V) (Fc fusion, not shown: large carriers)
chain: B1 chain with G233V, K237V, M239V
Ka (vWF A1 domain [3]): 1.5e+09 M⁻¹ | Ka [4]: 1.7e+09 M⁻¹

Results, then the binder that gave them:

fold higher binding affinity than the unsulfated isoform (α-thrombin [5]): ~80 fold | Kd [6]: 119 nM | Kd [7]: 113 to 521 nM
B3: GPIbα-IgG1Fc fusion protein 1V (M239V), fully sulfated isoform (Fc fusion)
chain: B1 chain with M239V
modifications: sulfotyrosine at 276, 278 and 279 (fully sulfated: sulfation state 6 per dimer)
notes: also called 1V 6 sulfated; GP Ibα-Ig239V fully sulfated isoform; not shown: IgG1 Fc

Ka (vWF A1 domain [3]): 1.5e+09 M⁻¹ | Ka [4]: 1.7e+09 M⁻¹
B4: GPIbα fusion protein variant 3V/C65S (Fc fusion, not shown: large carriers)
chain: B1 chain with C65S, G233V, K237V, M239V
notes: also called 3V/C-S

Kd [8]: 12 nM | Kd [9]: 3.4 to 15 nM
B5: GPIbα-IgG1Fc fusion protein 2V (G233V M239V), non-sulfated isoform (Fc fusion)
chain: B1 chain with G233V, M239V
modifications: tyrosines 276, 278, 279 not sulfated (sulfation state 0)
notes: also called 2V 0 sulfated; GP Ib-Ig2V unsulfated isoform; not shown: IgG1 Fc

fold decrease in binding against GPIb-290/2V-Ig (vWF A1 domain [10]): ~3 fold | Kd (vWF A1 domain [2]): 15.4 nM | Kd (α-thrombin [1]): 35800 nM | Ka (vWF A1 domain [3]): 9.1e+07 M⁻¹ | Ka [4]: 2.4e+08 M⁻¹
B7: GPIb-290/2V/FFF-Ig (GPIb-290/2V-Ig with Tyr-276, 278, 279 changed to phenylalanine) (Fc fusion)
chain: B1 chain with G233V, M239V, Y276F, Y278F, Y279F
notes: Non-sulfated chimera; also called GPIbα-290/2V/FFF-Ig; GPIbα-290-2V/FFF-Ig; not shown: human IgG1 Fc domain

Ka [4]: 7.7e+07 M⁻¹
B10: GPIbα-IgG1Fc fusion protein with the M239V (1V) substitution (Fc fusion)
chain: B1 chain with M239V
modifications: tyrosines 276, 278, 279 can be sulfated; sulfation state not stated
notes: also called GP Ibα-Ig239V; not shown: IgG1 Fc
